Assay results from US20180002699.

Columns and labels:
[1] = biological target: CDK9 (P-TEFb component), P50750
[2] = biological target: T1, full-length synthetic Tat protein (aa 1-72)
T1 chain: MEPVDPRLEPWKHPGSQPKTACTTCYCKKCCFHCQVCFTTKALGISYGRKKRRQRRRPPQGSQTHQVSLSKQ

[3] = biological target: histone H1 (purified human histones isolated from HEK293T cells), P07305
[4] = biological target: cyclin T1 (P-TEFb component), O60563
[5] = biological target: histone H3 (histones isolated from HEK293T cells)

Chain of histone H1 (purified human histones isolated from HEK293T cells), P07305 (P07305 whole entry, looked up): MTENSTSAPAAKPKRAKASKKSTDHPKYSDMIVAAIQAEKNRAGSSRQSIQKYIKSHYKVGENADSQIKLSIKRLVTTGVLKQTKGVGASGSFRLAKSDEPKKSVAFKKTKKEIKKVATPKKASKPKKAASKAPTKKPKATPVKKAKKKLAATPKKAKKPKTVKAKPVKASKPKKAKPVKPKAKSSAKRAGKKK
Chain of cyclin T1 (P-TEFb component), O60563 (O60563 whole entry): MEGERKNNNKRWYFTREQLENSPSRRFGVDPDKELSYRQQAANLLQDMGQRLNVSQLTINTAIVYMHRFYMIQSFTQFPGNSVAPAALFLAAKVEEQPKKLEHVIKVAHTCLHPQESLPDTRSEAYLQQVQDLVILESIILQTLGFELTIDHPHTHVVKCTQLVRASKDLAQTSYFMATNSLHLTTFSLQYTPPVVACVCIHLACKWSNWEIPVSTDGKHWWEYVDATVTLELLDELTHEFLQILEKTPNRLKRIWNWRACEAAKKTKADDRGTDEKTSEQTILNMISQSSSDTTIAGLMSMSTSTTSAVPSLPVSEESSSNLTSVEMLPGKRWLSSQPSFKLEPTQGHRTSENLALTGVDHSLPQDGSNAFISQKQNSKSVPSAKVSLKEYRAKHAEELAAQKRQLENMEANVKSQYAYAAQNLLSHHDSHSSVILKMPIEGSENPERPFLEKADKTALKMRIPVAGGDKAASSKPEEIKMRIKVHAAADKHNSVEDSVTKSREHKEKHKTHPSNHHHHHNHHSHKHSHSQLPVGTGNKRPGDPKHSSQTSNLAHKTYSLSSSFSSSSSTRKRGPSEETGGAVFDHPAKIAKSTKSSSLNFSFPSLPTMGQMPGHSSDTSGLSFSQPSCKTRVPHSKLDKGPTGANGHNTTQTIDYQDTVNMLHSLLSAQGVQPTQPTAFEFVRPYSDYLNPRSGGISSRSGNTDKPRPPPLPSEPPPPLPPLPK
Chain of CDK9 (P-TEFb component), P50750 (P50750 whole entry, the tested form may be a part): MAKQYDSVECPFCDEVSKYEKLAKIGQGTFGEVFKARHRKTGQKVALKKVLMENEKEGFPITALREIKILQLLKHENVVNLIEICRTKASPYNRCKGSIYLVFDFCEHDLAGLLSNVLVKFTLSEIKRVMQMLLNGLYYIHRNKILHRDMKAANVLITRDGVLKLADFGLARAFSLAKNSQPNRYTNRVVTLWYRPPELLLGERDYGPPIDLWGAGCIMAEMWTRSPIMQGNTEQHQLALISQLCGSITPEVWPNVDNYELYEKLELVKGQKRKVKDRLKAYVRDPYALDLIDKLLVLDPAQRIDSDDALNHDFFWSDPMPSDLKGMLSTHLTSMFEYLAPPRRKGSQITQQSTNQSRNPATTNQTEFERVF

B1: recombinant full-length SMYD5 (SET and MYND domain-containing protein 5) (protein)
chain: MAASMCDVFSFCVGVAGRARVSVEVRFVSSAKGKGLFATQLIRKGETIFVERPLVAAQFLWNALYRYRACDHCLRALEKAEENAQRLTGKPGQVLPHPELCTVRKDLHQNCPHCQVMYCSAECRLAATEQYHQVLCPGPSQDDPLHPLNKLQEAWRSIHYPPETASIMLMARMVATVKQAKDKDRWIRLFSQFCNKTANEEEEIVHKLLGDKFKGQLELLRRLFTEALYEEAVSQWFTPDGFRSLFALVGTNGQGIGTSSLSQWVHACDTLELKPQDREQLDAFIDQLYKDIEAATGEFLNCEGSGLFVLQSCCNHSCVPNAETSFPENNFLLHVTALEDIKPGEEICISYLDCCQRERSRHSRHKILRENYLFVCSCPKCLAEADEPNVTSEEEEEEEEEEEGEPEDAELGDEMTDV
Sp1, P08047
Chain of Sp1, P08047 (P08047 whole entry): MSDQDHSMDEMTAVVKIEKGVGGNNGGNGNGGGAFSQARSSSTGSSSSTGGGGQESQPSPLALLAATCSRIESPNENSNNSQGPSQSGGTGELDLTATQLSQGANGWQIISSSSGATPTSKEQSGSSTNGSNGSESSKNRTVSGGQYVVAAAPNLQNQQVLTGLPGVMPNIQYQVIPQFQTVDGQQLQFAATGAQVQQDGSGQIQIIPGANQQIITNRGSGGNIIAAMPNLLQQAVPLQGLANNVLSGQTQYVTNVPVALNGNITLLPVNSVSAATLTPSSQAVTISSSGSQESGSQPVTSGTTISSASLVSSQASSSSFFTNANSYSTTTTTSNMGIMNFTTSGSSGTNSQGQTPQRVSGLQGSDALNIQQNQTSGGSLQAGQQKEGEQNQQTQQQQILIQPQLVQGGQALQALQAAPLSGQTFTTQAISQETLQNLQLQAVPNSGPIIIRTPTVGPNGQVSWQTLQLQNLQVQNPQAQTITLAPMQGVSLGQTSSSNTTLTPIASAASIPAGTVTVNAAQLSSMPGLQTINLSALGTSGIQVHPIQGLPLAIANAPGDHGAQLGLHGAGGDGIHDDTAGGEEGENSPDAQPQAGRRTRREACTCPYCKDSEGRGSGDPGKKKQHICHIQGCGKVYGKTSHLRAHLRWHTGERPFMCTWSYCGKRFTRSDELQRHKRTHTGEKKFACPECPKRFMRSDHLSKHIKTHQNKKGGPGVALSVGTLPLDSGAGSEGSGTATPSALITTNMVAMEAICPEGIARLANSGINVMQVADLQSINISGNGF
  in vitro methylation (3H-SAM, autoradiography): no methylation was detected for Re1A, Sp1, cyclin T1 and CDK9
NF-kB p65 (RelA), Q04206
Chain of NF-kB p65 (RelA), Q04206 (Q04206 whole entry): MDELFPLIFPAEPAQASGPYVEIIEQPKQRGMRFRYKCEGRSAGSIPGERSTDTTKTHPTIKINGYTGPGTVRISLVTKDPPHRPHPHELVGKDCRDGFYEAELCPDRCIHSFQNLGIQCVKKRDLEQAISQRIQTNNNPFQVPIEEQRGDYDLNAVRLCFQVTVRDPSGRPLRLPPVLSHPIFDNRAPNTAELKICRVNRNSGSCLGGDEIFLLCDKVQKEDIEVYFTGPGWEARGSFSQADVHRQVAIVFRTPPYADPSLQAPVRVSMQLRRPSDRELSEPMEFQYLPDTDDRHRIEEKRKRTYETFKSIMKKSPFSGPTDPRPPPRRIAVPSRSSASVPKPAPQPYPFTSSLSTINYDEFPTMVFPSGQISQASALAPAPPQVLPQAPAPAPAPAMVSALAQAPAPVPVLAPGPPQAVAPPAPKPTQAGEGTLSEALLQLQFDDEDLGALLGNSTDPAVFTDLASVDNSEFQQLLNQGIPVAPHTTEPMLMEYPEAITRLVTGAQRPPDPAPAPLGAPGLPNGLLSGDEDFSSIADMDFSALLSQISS
  in vitro methylation (3H-SAM, autoradiography): no methylation was detected for Re1A, Sp1, cyclin T1 and CDK9
[1]
  in vitro methylation (3H-SAM, autoradiography): no methylation was detected for Re1A, Sp1, cyclin T1 and CDK9
[2]
  LC-MS/MS of in vitro methylation products (non-radiolabeled SAM): This analysis identified a single site, trimethylation of K41, identified in two distinct peptides (not shown). No mono or dimethylation at Tat K41 was observed.
  in vitro methylation (3H-SAM, autoradiography): histones H3 and H1 were weakly and Tat strongly methylated by SMYD5
[3]
  in vitro methylation (3H-SAM, autoradiography): histones H3 and H1 were weakly and Tat strongly methylated by SMYD5
[4]
  in vitro methylation (3H-SAM, autoradiography): no methylation was detected for Re1A, Sp1, cyclin T1 and CDK9
[5]
  in vitro methylation (3H-SAM, autoradiography): histones H3 and H1 were weakly and Tat strongly methylated by SMYD5
